One assay deals with T1, Recombinant Human IL-17 (human, UniProt Q16552 20-155, limits assumed).
T1 construct: bought reagent
T1 sequence (looked up): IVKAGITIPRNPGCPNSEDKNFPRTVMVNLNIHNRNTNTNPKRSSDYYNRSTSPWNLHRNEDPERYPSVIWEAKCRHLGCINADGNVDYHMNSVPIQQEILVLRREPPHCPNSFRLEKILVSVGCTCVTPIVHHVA
Nature of the assay: Biacore SPR; C-terminal VD. The essentials: (§1)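 Rate constants fitted globally to a 1:1 Langmuir model from antigen series of 10−200 nM flowed at 25 μl/min over captured antibody or DVD-Ig (anti-mouse IgG Fcγ capture, ligand at 25 μg/ml).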

In a further assay the target is T2, Recombinant Human IL-1β (human, UniProt P01584 117-269).
T2 construct: bought reagent; also called IL-1B
The assay is described as follows: Biacore SPR; N-terminal VD. The gist of the method: as §1

Where only a bound is given, the exact number is not on record here.

B1: DVD1593 (bispecific antibody, human IgG1, kappa)
heavy: not shown
light: DTQVTQSPSSLSASVGDRVTITCITSTDIDVDMNWYQQKPGKPPKLLISQGNTLRPGVPSRFSSSGSGTDFTFTISSLQPEDFATYYCLQSDNLPLTFGQGTKLEIKRTVAAPSVFIFPPDIQMTQSPSSLSASVGDRVTITCRASSGIISYIDWFQQKPGKAPKRLIYATFDLASGVPSRFSGSGSGTDYTLTISSLQPEDFATYYCRQVGSYPETFGQGTKLEIKRTVAAPSVFIFPPSDEQLKSGTASVVCLLNNFYPREAKVQWKVDNALQSGNSQESVTEQDSKDSTYSLSSTLTLSKADYEKHKVYACEVTHQGLSSPVTKSFNRGEC
notes: DVD-Ig, outer AB270, inner AB273, linker set 2; V1 wt hIgG1, V2 kappa; also called DVD1593H; DVD1593L
Take B1: in the assay with Recombinant Human IL-17, the Kd turned out to be 27 pM, the koff stood at 9.2e-06 s⁻¹ and the kon is 340000 M⁻¹ s⁻¹. Besides, in the assay with Recombinant Human IL-1β, the Kd was 64 pM, the koff amounted to 0.00047 s⁻¹ and the kon is 7.4e+06 M⁻¹ s⁻¹.

B2: DVD1597 (bispecific antibody, human IgG1, kappa)
heavy: not shown
light: ETTVTQSPSSLSASVGDRVTITCITSTDIDVDMNWYQQKPGKPPKLLISQGNTLRPGVPSRFSSSGSGTDFTFTISSLQPEDFATYYCLQSDNLPLTFGQGTKLEIKRTVAAPSVFIFPPDIQMTQSPSSLSASVGDRVTITCRASSGIISYIDWFQQKPGKAPKRLIYATFDLASGVPSRFSGSGSGTDYTLTISSLQPEDFATYYCRQVGSYPETFGQGTKLEIKRTVAAPSVFIFPPSDEQLKSGTASVVCLLNNFYPREAKVQWKVDNALQSGNSQESVTEQDSKDSTYSLSSTLTLSKADYEKHKVYACEVTHQGLSSPVTKSFNRGEC
notes: DVD-Ig, outer AB272, inner AB273, linker set 2; V1 wt hIgG1, V2 kappa; also called DVD1597H; DVD1597L
B2: in the assay with Recombinant Human IL-17, the Kd turned out to be 12 pM, the koff amounted to 4.1e-06 s⁻¹ and the kon is 350000 M⁻¹ s⁻¹. Besides, in the assay with Recombinant Human IL-1β, the Kd came out at 75 pM, the koff came to 0.00063 s⁻¹ and the kon was 8.4e+06 M⁻¹ s⁻¹.

B3: DVD1603 (bispecific antibody, human IgG1, kappa)
heavy: not shown
light: DTQVTQSPSSLSASVGDRVTITCITSTDIDVDMNWYQQKPGKPPKLLISQGNTLRPGVPSRFSSSGSGTDFTFTISSLQPEDFATYYCLQSDNLPLTFGQGTKLEIKRTVAAPSVFIFPPEIVLTQSPDFQSVTPKEKVTITCRASQDIGSELHWYQQKPDQPPKLLIKYASHSTSGVPSRFSGSGSGTDFTLTINGLEAEDAGTYYCHQTDSLPYTFGPGTKVDIKRTVAAPSVFIFPPSDEQLKSGTASVVCLLNNFYPREAKVQWKVDNALQSGNSQESVTEQDSKDSTYSLSSTLTLSKADYEKHKVYACEVTHQGLSSPVTKSFNRGEC
notes: DVD-Ig, outer AB270, inner AB274, linker set 2; V1 wt hIgG1, V2 kappa; also called DVD1603H; DVD1603L
As to B3, in the assay with Recombinant Human IL-17, the Kd is no more than 0.27 pM, the koff was less than 1e-06 s⁻¹ and the kon worked out at 310000 M⁻¹ s⁻¹. Besides, in the assay with Recombinant Human IL-1β, the Kd was 69 pM, the koff was found to be 0.00048 s⁻¹ and the kon was 6.9e+06 M⁻¹ s⁻¹.

B4: DVD1591 (bispecific antibody, human IgG1, kappa)
heavy: not shown
light: DIQMTQSPSSLSASVGDRVTITCRASGNIHNYLTWYQQTPGKAPKLLIYNAKTLADGVPSRFSGSGSGTDYTFTISSLQPEDIATYYCQHFWSIPYTFGQGTKLQITRTVAAPSVFIFPPDIQMTQSPSSLSASVGDRVTITCRASSGIISYIDWFQQKPGKAPKRLIYATFDLASGVPSRFSGSGSGTDYTLTISSLQPEDFATYYCRQVGSYPETFGQGTKLEIKRTVAAPSVFIFPPSDEQLKSGTASVVCLLNNFYPREAKVQWKVDNALQSGNSQESVTEQDSKDSTYSLSSTLTLSKADYEKHKVYACEVTHQGLSSPVTKSFNRGEC
notes: V1 wt hIgG1, V2 kappa; also called DVD1591H; DVD1591L
For the molecule B4, in the assay with Recombinant Human IL-17, the Kd is less than 3.2 pM, the koff was less than 1e-06 s⁻¹ and the kon amounted to 310000 M⁻¹ s⁻¹. Further, in the assay with Recombinant Human IL-1β, the Kd was 32 pM, the koff was determined as 3.1e-05 s⁻¹ and the kon was 960000 M⁻¹ s⁻¹.

B5: DVD1268 (bispecific antibody, human IgG1, kappa)
heavy: not shown
light: DTVVTQSPAFLSVTPGEKVTITCITSTDIDVDMNWYQQKPDQPPKLLISQGNTLRPGVPSRFSSSGSGTDFTFTISSLEAEDAATYYCLQSDNLPLTFGQGTKLEIKRTVAAPDIQMTQSPSSLSASVGDRVTITCRASSGIISYIDWFQQKPGKAPKRLIYATFDLASGVPSRFSGSGSGTDYTLTISSLQPEDFATYYCRQVGSYPETFGQGTKLEIKRTVAAPSVFIFPPSDEQLKSGTASVVCLLNNFYPREAKVQWKVDNALQSGNSQESVTEQDSKDSTYSLSSTLTLSKADYEKHKVYACEVTHQGLSSPVTKSFNRGEC
notes: DVD-Ig, outer AB271, inner AB273, linker set 1; V1 wt hIgG1, V2 kappa; also called DVD1268H; DVD1268L
With B5, in the assay with Recombinant Human IL-17, the Kd is less than 20 pM, the koff was less than 1e-06 s⁻¹ and the kon came out at 51000 M⁻¹ s⁻¹. In the assay with Recombinant Human IL-1β, the Kd was 67 pM, the koff turned out to be 0.00057 s⁻¹ and the kon was 8.5e+06 M⁻¹ s⁻¹.

B6: DVD1262 (bispecific antibody, human IgG1, kappa)
heavy: not shown
light: DIQMTQSPSSLSASVGDRVTITCRASGNIHNYLTWYQQTPGKAPKLLIYNAKTLADGVPSRFSGSGSGTDYTFTISSLQPEDIATYYCQHFWSIPYTFGQGTKLQITRTVAAPDIQMTQSPSSLSASVGDRVTITCRASSGIISYIDWFQQKPGKAPKRLIYATFDLASGVPSRFSGSGSGTDYTLTISSLQPEDFATYYCRQVGSYPETFGQGTKLEIKRTVAAPSVFIFPPSDEQLKSGTASVVCLLNNFYPREAKVQWKVDNALQSGNSQESVTEQDSKDSTYSLSSTLTLSKADYEKHKVYACEVTHQGLSSPVTKSFNRGEC
notes: V1 wt hIgG1, V2 kappa; also called DVD1262H; DVD1262L
Regarding B6, in the assay with Recombinant Human IL-17, the Kd was 12000 pM, the koff was 0.0001 s⁻¹ and the kon was determined as 8500 M⁻¹ s⁻¹. Also, in the assay with Recombinant Human IL-1β, the Kd came out at 33 pM, the koff stood at 4.8e-05 s⁻¹ and the kon turned out to be 1.4e+06 M⁻¹ s⁻¹.

The values are drawn from patent publication US20120034160A1 (AbbVie / Abbott, published 2012).
